Experimental data as given in patent US12366576B2, “Compositions, assays, and methods for direct modulation of fatty acid metabolism” (Dana-Farber Cancer Institute, Inc., priority 2016, dated 2025).
Bridge positions count the residues as written; N and C are the ends. Square brackets hold non-standard residues; d marks the D form. Ends that are not written are not given here. * marks the point of attachment. Biotin = O=C1N[C@H]2[C@H](CS[C@H]2CCCCC(=O)*)N1; S5 = C=CCCC[C@](C)(N)C(=O)O

Experiments:
endogenous MCL-1 = assay: Biotinylated SAHB pulldown from MEF lysates, anti-MCL-1 Western analysis; assay type: binding, mouse; conditions: wild-type MEF lysates, 15 nmol biotinylated SAHB
Experimental: An exploratory proteomics analysis was conducted to identify proteins that interact with the MCL-1 BH3 domain helix. An extensive library of MCL-1 stapled BH3 peptides (FIG. 2) was generated to both identify novel protein interactors by mass spectrometry and then deploy the stapled peptide constructs as novel probes to dissect and pharmacologically modulate the identified protein interactors and associated signaling pathways. As an example, an N-terminally biotinylated stapled peptide designed based on the sequence of MCL-1's BH3 domain (Btn-MCL-1 SAHBD), or vehicle, was incubated with wild-type mouse embryonic fibroblast (MEF) lysates, followed by high stringency streptavidin capture. To validate the proteomics workflow and ensure that Btn-MCL-1 SAHBD could, in fact, engage protein interactors in a lysate, eluates were first run on a gel for anti-MCL-1 Western analysis. […] For mass spectrometry (MS) analysis, eluates were run on a reducing/denaturing gel followed by Coomassie staining (FIG. 4) and in-gel digestion was performed before injection on the instrument.
The binding determinants for the MCL-1 BH3/VLCAD interaction were investigated by generating a series of biotinylated MCL-1 SAHBD alanine point mutants (FIG. 18A) and performing streptavidin pull-downs from MEF lysates, followed by VLCAD and MCL-1 western analysis of the resulting eluates. […] Native alanines and residues not mutated are colored white.
Wild-type MEFs were trypsinized, washed once with cold PBS, and lysed on ice with NP-40 lysis buffer (50 mM Tris, pH 7.4, 150 mM NaCl, 0.5% (v/v) NP-40, complete protease inhibitor pellet (Roche)) using 1 ml of lysis buffer for every 10 million cells lysed. Cellular debris was pelleted at 14,000 g for 10 min at 4° C., and the supernatant was quantified using the BCA Protein Assay Kit (Thermo Fisher Scientific). 2 mg of lysate per pulldown were then exposed to 50 μL of pre-equilibrated High Capacity Streptavidin Agarose beads (Thermo Fisher Scientific). […] The beads were then pelleted and washed with NP-40 lysis buffer three times before eluting the protein sample from the beads by heating at 70° C. for 10 min in SDS loading buffer. Samples were then subjected to electrophoresis and either Western analysis or Coomassie stain (SimplyBlue Safe Stain, Thermo Fisher Scientific). […] Coomassie stained gels were then processed for proteomics analysis (see below). Biotinylated SAHB pulldowns of recombinant protein were performed as above incubating 5 nmol of SAHB with 10 pmol of rVLCAD in 500 μL total volume. Densitometry analyses were performed using ImageJ software.

VLCAD [1] = target: T1, VLCAD (Homo sapiens, UniProt P49748); assay: Biotinylated SAHB pulldown of recombinant protein; assay type: binding; conditions: 5 nmol SAHB with 10 pmol rVLCAD
T1 construct: 10x His (N); made in house; host or cells: E. coli BL21(DE3), pET19b
T1 sequence (P49748 40-655): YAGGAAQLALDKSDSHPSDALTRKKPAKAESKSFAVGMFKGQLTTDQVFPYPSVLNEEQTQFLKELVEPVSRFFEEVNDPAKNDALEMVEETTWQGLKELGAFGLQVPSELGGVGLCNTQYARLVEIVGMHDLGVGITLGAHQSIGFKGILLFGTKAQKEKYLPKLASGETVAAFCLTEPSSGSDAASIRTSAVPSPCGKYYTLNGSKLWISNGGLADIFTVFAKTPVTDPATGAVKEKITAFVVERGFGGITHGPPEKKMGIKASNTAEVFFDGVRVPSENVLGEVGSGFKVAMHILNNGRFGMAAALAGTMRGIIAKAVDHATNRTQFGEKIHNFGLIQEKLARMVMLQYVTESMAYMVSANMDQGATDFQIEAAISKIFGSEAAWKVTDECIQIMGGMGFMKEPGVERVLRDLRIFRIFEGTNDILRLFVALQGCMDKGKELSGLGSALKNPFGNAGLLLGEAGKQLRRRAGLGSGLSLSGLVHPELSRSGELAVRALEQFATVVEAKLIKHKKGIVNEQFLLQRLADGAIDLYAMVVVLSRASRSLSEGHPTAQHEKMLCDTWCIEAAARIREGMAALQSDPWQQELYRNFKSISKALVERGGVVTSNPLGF
Source text: To validate the MS result, the pulldowns were repeated and eluates run on a gel for anti-VLCAD Western blot analysis. […] All peptides faithfully recapitulated native BH3-binding propensities for endogenous MCL-1 protein (FIG. 8). The eluates were then probed for the other members of the acyl-CoA dehydrogenase family that manifest shorter fatty acid substrate specificities. MCL-1 SAHBD was able to pull down VLCAD, but not MCAD or SCAD (FIG. 9). Because the traditional MCL-1 staple location differs from that of the BIM, BID, and BAD SAHBs, it was important to confirm that the observed VLCAD binding specificity was due to BH3 sequence selectivity, not staple position. A BIM SAHB with the traditional MCL-1 staple (BIM SAHBF), and a MCL-1 stapled peptide with the traditional BIM staple (MCL-1 SAHBA), were generated. […]
Wild-type MEFs were trypsinized, washed once with cold PBS, and lysed on ice with NP-40 lysis buffer (50 mM Tris, pH 7.4, 150 mM NaCl, 0.5% (v/v) NP-40, complete protease inhibitor pellet (Roche)) using 1 ml of lysis buffer for every 10 million cells lysed. Cellular debris was pelleted at 14,000 g for 10 min at 4° C., and the supernatant was quantified using the BCA Protein Assay Kit (Thermo Fisher Scientific). […]

MCL-1ΔNΔC [2] = target: T2, MCL-1ΔNΔC (Homo sapiens, UniProt Q07820); assay: 19F NMR binding study with fluorinated SAHB; conditions: fluorinated SAHB 25 μM, MCL-1ΔNΔC 0-45 μM
T2 construct: The MCL-1ΔNΔC construct was grown and expressed in E. coli as previously described; made in house; host or cells: E. coli BL21(DE3)
Experimental: (§1) To measure the direct binding interaction, ^19F NMR binding studies were conducted using fluorinated analogs of MCL-1 SAHBD. […] Both SAHBs, however, bind MCL-1ΔNΔC, as illustrated by a chemical shift of the peptide NMR peak in both cases (FIG. 15). […] To perform these experiments, N-terminal Btn-PEG analogs of the peptides were immobilized onto streptavidin probes that were then placed into protein solutions at a variety of concentrations to measure ligand-target association.
MCL-1ΔNΔC. The MCL-1ΔNΔC construct was grown and expressed in E. coli as previously described (see, e.g., Stewart, Nat Chem Biol., 6(6):595-601 (2010)). Transformed BL21(DE3) E. coli were grown at 37° C. to an OD of 0.8, after which they were induced with 0.5 mM IPTG. […]
(§2) To determine binding of SAHBs to VLCAD, fluorinated SAHB (25 μM) and VLCAD (0-125 μM) were mixed together in VLCAD FPLC buffer including 10% D2O to a final volume of 500 μL. […] The extent to which VLCAD bound the peptide was determined by measuring the peak width at half height (ν1/2) of the peptide ^19F signal. […] MCL-1ΔNΔC binding to SAHBs causes a change in the ^19F chemical shift of the peptide resulting in two peptide signals (instead of peak broadening), so extent of binding was quantified by measuring the peak height of “unbound” peptide relative to the bound peptide signal.

VLCAD [3] = target: T1, VLCAD; assay: 19F NMR binding study with fluorinated SAHB; conditions: fluorinated SAHB 25 μM, VLCAD 0-125 μM
Experimental: as §1
VLCAD. Mature human VLCAD lacking its cleavable leader sequence (aa 40-655) (NP_000009.1) was subcloned into the pET19b vector (Novagen) using NdeI and XhoI restriction sites. Correct insertion was confirmed by DNA sequencing. […]
as §2

VLCAD [4] = target: T1, VLCAD; assay: Biolayer interferometry; assay type: binding; conditions: Biotin-PEG peptide immobilized on streptavidin sensors
Experimental: as §1
VLCAD. Mature human VLCAD lacking its cleavable leader sequence (aa 40-655) (NP_000009.1) was subcloned into the pET19b vector (Novagen) using NdeI and XhoI restriction sites. Correct insertion was confirmed by DNA sequencing. The 10× His-tagged VLCAD construct was expressed in BL21(DE3) E. coli, and once cells reached an OD of 0.8 after growing at 37° C., they were induced with 0.5 mM […] (IPTG) (Gold Biotechnology I2481C) at 37° C. for 4 hours. Bacterial pellets were resuspended in lysis buffer (500 mM NaCl, 50 mM HEPES, 5% glycerol, pH 7.5, complete protease inhibitor tablet) and lysed by microfluidization (M-110L; Microfluidics). […]
BLI binding measurements were performed using an Octet Red384 System (ForteBio). […] Binding parameters were calculated using the accompanying Octet Software version 9 (ForteBio).

MCL-1ΔNΔC [5] = target: T2, MCL-1ΔNΔC; assay: Biolayer interferometry; assay type: binding; conditions: Biotin-PEG peptide immobilized on streptavidin sensors

T2 sequence (Q07820 172-320 limits assumed, stated change not applied): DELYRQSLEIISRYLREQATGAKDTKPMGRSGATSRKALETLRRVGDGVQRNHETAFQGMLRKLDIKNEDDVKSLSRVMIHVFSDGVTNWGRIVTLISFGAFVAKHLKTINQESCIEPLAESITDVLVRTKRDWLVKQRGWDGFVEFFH
endogenous MCL-1, sequence (P97287 152-308 limits assumed): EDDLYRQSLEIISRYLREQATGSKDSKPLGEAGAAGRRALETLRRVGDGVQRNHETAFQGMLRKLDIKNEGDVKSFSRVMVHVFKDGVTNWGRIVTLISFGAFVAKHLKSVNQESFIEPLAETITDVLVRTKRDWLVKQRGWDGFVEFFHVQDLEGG

Substance | pull down of endogenous MCL-1 from cellular lysates (endogenous MCL-1) | pull down of recombinant VLCAD (VLCAD [1]) | 19F NMR binding to MCL-1ΔNΔC (chemical shift of the peptide peak) (MCL-1ΔNΔC [2]) | 19F NMR peptide peak broadening on VLCAD titration (VLCAD [3]) | biolayer interferometry association with VLCAD (VLCAD [4]) | biolayer interferometry association with MCL-1 (MCL-1ΔNΔC [5])
Btn-MCL-1 SAHBD: N-terminally biotinylated stapled peptide designed based on the sequence of MCL-1's BH3 domain (Biotin-RKALETLRRVGDGV[S5]RNH[S5]TAF; staple 15-19) | readily identified in the eluates | pulled down recombinant VLCAD | – | – | – | –
MCL-1 SAHBB: MCL-1 SAHB containing a different staple position (RKAL[S5]TLR[S5]VGDGVQRNHETAF; staple 5-9) | – | – | binds directly | little to no peak broadening | no detectable binding interaction | bind to MCL-1
